The values that follow come from patent US20240279304A1, “DSG2 COMPOSITIONS AND METHODS” (Arvada Therapeutics, Inc., priority 2021, published 2024).

Series [1] is described as follows: Dynamic light scattering (DLS) of DSG2 fusion polypeptides. Conditions: average polymer distribution index. It is filed as physicochemical. The text has this:
6 candidates were compared to the reference sample.

For series [2], the system named is anti-DSG2 antibodies in sera of ARVC patients. The series can be described thus: Electrochemical immunoassay, blocking of ARVC patient sera binding to DSG2 extracellular domain. Conditions: fusion polypeptides 5 μg/mL; patient sera 10% (v/v); FIG. 5. Also noted: species or system human. How it is done: DSG2 fusion polypeptides were investigated for the ability to block the binding of anti-DSG2 antibodies in sera of ARVC patients to the DSG2 extracellular domain in an electrochemical immunoassay. The fusion polypeptides were added to a final concentration of 5 μg/mL and patient sera were used at a final concentration of 10% (v/v). The results are shown in the series of bar charts in FIG. 5, where the numbers 961, 965, 978, 986 and 964 indicate ARVC patient serum samples.
In FIG. 5, the first data series from the left is for DSG2FP #1 (described above as amino acids 49-608 of SEQ ID NO:30; Linker (IEGRMD (SEQ ID NO: 28)); amino acids 100-330 of IgG1 (SEQ ID NO: 4). The second data series from the left is for DSG2(50-602)-6×His, which is a fusion polypeptide of DSG2 amino acids 50-602 of SEQ ID NO: 1 (complete extracellular domain) to a hexahistidine peptide tag. The third data series from the left is for a combination of fusion polypeptides which includes EC1(50-155)-6×His, a fusion of DSG2 amino acids 50-155 of SEQ ID NO: 1 (EC1) to a hexahistidine peptide tag and EC2(151-268)-6×His, a fusion of DSG2 amino acids 151-268 of SEQ ID NO: 1 (EC2) to a hexahistidine peptide tag. […] It is likely that other affinity tags may be determined to be useful in alternative embodiments of DSG2 polypeptides, with examples including, but not limited to CBP, MBP, streptavidin and GST, for example. […]

Take “DSG2FP#1: R&D Systems DSG2 extracellular domain (49-608 of SEQ ID NO: 30); linker IEGRMD; amino acids 100-330 of IgG1”: the PDI in series [1] is on record as 0.33. Besides, the “blocking activity (inhibition; 100% = complete blocking)” value in series [2] is “best blocking activity”.
